Reference: publication PMC11257983 (2024)

B1: Flag-CNK^2–549 [Drosophila] / GST-HYP [Drosophila] (parent complex)
chain 1: AYINIAEWTPDQVTDWIKGLDESMKGYLYEFSKQEIGGRALLNIRPYELENLGMLRIGHQEIVLEAVENLRNFHYHLKNDNLQFMALHVATAAKNLHRELARNHAESTKIDTRILHDITRTIATLKPLVGSLERTPFRKQEMYREYCGNVLKCGLELATIAHRDRFALQPVPAIRQSAERLENLANFVIQDISDPMVLQPASLNLVTLKKRESELGFNIESSYNGIHRVTDIKYNSPAHNSGKIEDGDEIVQINYQTVVGWQHRTVLEHLREALPDVVLTVKKRPKHTKMFGQIYMQPYRLPSKKRNMAARWAAQMPSPRAAFLTLDTEQLATGGTGSAVPDPSKSLSSEKREVLTKANPVSSASDSDSSCSDIPTPTDPKLAAREIRLYYPKPRALLQRRNTICGCEYLSLKNSDLVVPSWHERKPGIGSPTNCDPGSPSIRDKSISFGYGLEMAARPTTCIGIAGDTSTDKARRMFHEARKLKQLTEDSQREFLVDRYKPGVSKVVRFDAKEDYVMKNEKFICNVENTILETFEPIPFADEGDEDA
chain 2: MGEETINSTQNKTRTKTTRPKAVYLWTVSDVLKWYRRHCGEYTQYEQLFAQHDITGRALLRITDSSLQRMGVTDNRDREAIWREIVKQRLKTDIMEIRDMERLNIY
B2: Myc-MEK [Drosophila] / V5-KSR [Drosophila] (parent complex)
chain 1: MSKNKLNLVLPPVNTEATVAAATVAPTPPFKTPSGTDTHSLLGKPKTSIDALTETLEGLDMGDTERKRIKMFLSQKEKIGELSDEDLEKLGELGSGNGGVVMKVRHTHTHLIMARKLIHLEVKPAIKKQILRELKVLHECNFPHIVGFYGAFYSDGEISICMEYMDGGSLDLILKRAGRIPESILGRITLAVLKGLSYLRDNHAIIHRDVKPSNILVNSSGEIKICDFGVSGQLIDSMANSFVGTRSYMSPERLQGTHYSVQSDIWSLGLSLVEMAIGMYPIPPPNTATLESIFADNAEESGQPTDEPRAMAIFELLDYIVNEPPPKLEHKIFSTEFKDFVDICLKKQPDERADLKTLLSHPWIRKAELEEVDISGWVCKTMDLPPSTPKRNTSPN
chain 2: MSSNNNAPASAPDTGSTNANDPISGSLSVDSNLVIIQDMIDLSANHLEGLRTQCAISSTLTQQEIRCLESKLVRYFSELLLAKMRLNERIPANGLVPHTTGNELRQWLRVVGLSQGTLTACLARLTTLEQSLRLSDEEIRQLLADSPSQREEEELRRLTRAMQNLRKCMESLESGTAASNNDPEQWHWDSWDRPTHIHRGSVGNIGLGNNSTASPRTHHRQHGVKGKNSALANSTNFKSGRQSPSATEELNSTQGSQLTLTLTPSPPNSPFTPSSGLSSSLNGTPQRSRGTPPPARKHQTLLSQSHVQVDGEQLARNRLPTDPSPDSHSSTSSDIFVDPNTNASSGGSSSNVLMVPCSPGVGHVGMGHAIKHRFTKALGFMATCTLCQKQVFHRWMKCTDCKYICHKSCAPHVPPSCGLPREYVDEFRHIKEQGGYASLPHVHGAAKGSPLVKKSTLGKPLHQQHGDSSSPSSSCTSSTPSSPALFQQRERELDQAGSSSSANLLPTPSLGKHQPSQFNFPNVTVTSSGGSGGVSLISNEPVPEQFPTAPATANGGLDSLVSSSNGHMSSLIGSQTSNASTAATLTGSLVNSTTTTSTCSFFPRKLSTAGVDKRTPFTSEYTDTHKSNDSDKTVSLSGSASTDSDRTPVRVDSTEDGDSGQWRQNSISLKEWDIPYGDLLLLERIGQGRFGTVHRALWHGDVAVKLLNEDYLQDEHMLETFRSEVANFKNTRHENLVLFMGACMNPPYLAIVTSLCKGNTLYTYIHQRREKFAMNRTLLIAQQIAQGMGYLHAREIIHKDLRTKNIFIENGKVIITDFGLFSSTKLLYCDMGLGVPHNWLCYLAPELIRALQPEKPRGECLEFTPYSDVYSFGTVWYELICGEFTFKDQPAESIIWQVGRGMKQSLANLQSGRDVKDLLMLCWTYEKEHRPQFARLLSLLEHLPKKRLARSPSHPVNLSRSAESVF

Variants of: B1
Experiment: GST pull-down, immunoblot quantification; S2 cells; GST-HYP, V5-KSR, Myc-MEK co-expressed; anti-Flag (CNK) blot; parent: 1

Variant	ratio to parent
chain 1 S193A	0.94
chain 1 Q199A	0.87
chain 1 M196E	0.55
chain 1 D194K, chain 1 V197E	0.27
chain 1 D194K	0.24
chain 1 V197E	0.24

Variants of: B1
Experiment: GST pull-down, immunoblot quantification; S2 cells; only Flag-CNK2–549 and GST-HYP co-expressed; anti-Flag (CNK) blot; parent: 1

Variant	ratio to parent
chain 1 S193A	0.81
chain 1 Q199A	0.83
chain 1 M196E	0.82
chain 1 D194K, chain 1 V197E	1.03
chain 1 D194K	0.76
chain 1 V197E	0.77

Variants of: B1
Experiment: GST pull-down, immunoblot quantification; S2 cells; GST-HYP + RRKM (Ha-RASV12, Pyo-RAF, V5-KSR, Myc-MEK) co-expressed; anti-Flag (CNK) blot; parent: 1

Variant	ratio to parent
chain 1 S193A	0.86
chain 1 Q199A	0.72
chain 1 M196E	0.34
chain 1 D194K	0.24
chain 1 V197E	0.21

Variants of: B1
Experiment: GST pull-down, immunoblot quantification; S2 cells; only GST-HYP and Flag-CNK2–549 co-expressed; anti-Flag blot; parent: 1

Variant	ratio to parent
chain 2 I97D	0.28
chain 2 L90D, chain 2 I97D	0.25
chain 2 L90D	0.24

Variants of: B1
Experiment: GST pull-down, immunoblot quantification; S2 cells; GST-HYP, Flag-CNK2–549 + RRKM co-expressed; anti-Flag (CNK) blot; parent: 1

Variant	ratio to parent
chain 2 I97D	0.53
chain 2 L90D, chain 2 I97D	0.15
chain 2 L90D	0.24

Variants of: B1
Experiment: GST pull-down, immunoblot quantification; S2 cells; only Flag-CNK2–549 and GST-HYP co-expressed; anti-Flag (CNK) blot; parent: 1
Remark: another data set of the same source

Variant	ratio to parent
chain 1 Q83E	1.12
chain 1 N81E	0.9
chain 1 N81W	0.7
chain 1 N95E	0.99
chain 1 R98E	1.27
chain 1 R45F	0.73
chain 1 Y75R	0.93

Variants of: B1
Experiment: GST pull-down, immunoblot quantification; S2 cells; Flag-CNK2–549, V5-KSR, Myc-MEK, GST-HYP co-expressed; anti-CNK blot; parent: 1

Variant	ratio to parent
chain 1 Q83E	0.4
chain 1 N81E	0.24
chain 1 N81W	0.09
chain 1 N95E	0.82
chain 1 R98E	0.77
chain 1 R45F	0.79
chain 1 Y75R	0.73

Variants of: B1
Experiment: GST pull-down, immunoblot quantification; S2 cells; GST-HYP, V5-KSR, Myc-MEK co-expressed; anti-Flag (CNK) blot; parent: 1
Remark: another data set of the same source

Variant	ratio to parent
chain 1 M196E	0.65
chain 1 K33D	0.84
chain 1 L267R	0.85
chain 1 A40F	0.79
chain 1 K109E	0.81
chain 1 R264E	0.68
chain 1 T135F	0.84

Variants of: B2
Experiment: anti-V5 immunoprecipitation, immunoblot quantification; S2 cells; V5-KSR and Myc-MEK co-expressed; anti-MEK blot; parent: 1

Variant	ratio to parent
chain 2 M902D	0.9
chain 2 Y925D	1.24
chain 2 E926R	1.51
chain 2 W896R	0.15
chain 2 K903D	0.46

Variants of: B2
Experiment: anti-V5 immunoprecipitation, immunoblot quantification; S2 cells; V5-KSR and Myc-MEK co-expressed; anti-Myc (MEK) blot; parent: 1

Variant	ratio to parent
chain 1 E323R	0.82

Variants of: B2
Experiment: as above
Remark: another data set of the same source

Variant	ratio to parent
chain 2 R913E	1.31
